# Where “and” joins values, the source holds several entries; their conditions need not be identical. Equal entries are not always repeated.
# Key:
# [1] = target: CFTR D47A expressed in Xenopus laevis oocytes (human) (UniProt P13569)
# [2] = target: CFTR E51A expressed in Xenopus laevis oocytes (human) (UniProt P13569)
# [3] = target: CFTR D58A expressed in Xenopus laevis oocytes (human) (UniProt P13569)
# [4] = target: dephosphorylated wild-type human CFTR (human) (UniProt P13569); test: cryo-EM structure; 30 uM dephosphorylated wild-type CFTR in digitonin, 250 uM bPKA-C, 2 mM AMP-PNP/Mg2+; 200 mM NaCl, 20 mM HEPES pH 7.4, 1 mM DTT
# [5] = target: dephosphorylated human CFTR E1371Q (human) (UniProt P13569); test: cryo-EM structure; 30 uM dephosphorylated E1371Q CFTR in digitonin, 250 uM bovine PKA-C, 1 mM P-ATP/Mg2+ and 1 mM AMP-PNP/Mg2+; 200 mM NaCl, 20 mM HEPES pH 7.4, 1 mM DTT
# [6] = target: phosphorylated human CFTR E1371Q (human) (UniProt P13569); test: cryo-EM structure; phosphorylated E1371Q CFTR (~5 mg/mL) in digitonin with PKA-C (~10 mg/mL), 3 mM ATP/Mg2+; 200 mM NaCl, 20 mM HEPES pH 7.4, 1 mM DTT
# [7] = target: WT CFTR expressed in Xenopus laevis oocytes (human) (UniProt P13569)
Substance,"half-time (t1/2) of macroscopic current activation by 300 nM bPKA-C in 2 mM ATP, relative to WT CFTR [1]","half-time (t1/2) of macroscopic current activation by 300 nM bPKA-C in 2 mM ATP, relative to WT CFTR [2]","half-time (t1/2) of macroscopic current activation by 300 nM bPKA-C in 2 mM ATP, relative to WT CFTR [3]",stoichiometry N (PKA-C per CFTR) [4],stoichiometry N (PKA-C per CFTR) [5],stoichiometry N (PKA-C per CFTR) [6],"half-time (t1/2) of current activation by 300 nM rPKA-C in 2 mM ATP, relative to 300 nM bPKA-C on WT CFTR [7]"
protein kinase A catalytic subunit purified from bovine heart (from UniProt P00517 1-351) (enzyme),2 fold,2 fold,2 fold,1 and 2,1,1,
"recombinant bovine PKA-C, wild type (from UniProt P00517 1-351) (enzyme)",,,,,,,6 fold
